Source: patent US20220348939

Test system: Type I-F Csy (Cascade) complex with Cas2-3 (cas1, cas3, csy1-csy4), endogenous (Zymomonas mobilis ZM4)
Experiment: cell_activity

Sequence	activity (PAM 5'-CCC-3', knockout efficiency)	activity (PAM 5'-TCC-3', His-tag insertion efficiency)
AUGCCGCUUUCGAUCAGGCCGCCGCCAAGAUU / ATGCCGCTTTCGATCAGGCCGCCGCCAAGATT / AATCTTGGCGGCGGCCTGATCGAAAGCGGCAT [ZMO0038 knockout crRNA spacer ; ZMO0038 target]	100%	
AUCUUGACUCCCUCCAUGCACUUAAAAAAUCU / ATCTTGACTCCCTCCATGCACTTAAAAAATCT / AGATTTTTTAAGTGCATGGAGGGAGTCAAGAT [ZMO0038 His-tag crRNA spacer ; ZMO0038 start codon target]		100%
